In the experiment the target is GST-Pirh2 (construct of Figures S5 and S12 not stated) (human) (UniProt Q96PM5). Put plainly: AlphaScreen or HTRF. A general note: Bead proximity is the source of the signal in Alpha formats.
Sequence of GST-Pirh2 (construct of Figures S5 and S12 not stated) (human) (Q96PM5 whole entry): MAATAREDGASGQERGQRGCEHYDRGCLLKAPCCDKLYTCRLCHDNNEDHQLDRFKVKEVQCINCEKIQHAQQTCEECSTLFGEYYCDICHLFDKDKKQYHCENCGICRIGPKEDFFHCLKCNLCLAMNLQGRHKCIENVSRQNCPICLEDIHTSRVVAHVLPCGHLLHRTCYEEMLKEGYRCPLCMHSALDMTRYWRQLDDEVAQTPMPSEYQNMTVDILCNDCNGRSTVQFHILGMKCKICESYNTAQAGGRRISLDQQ

The term IC50 denotes the concentration at which inhibition is half-maximal. A low value points to greater potency. Regarding B. subtilis SsrA tag (peptide), the half-inhibitory concentration (IC50) was 470 nM.
